From patent publication US20230213524A1 (published 2023)

Assays:
[1] = biological target: T1, human folate receptor 1 (FOLR1) on cells (human, UniProt P15328 25-234); test: flow cytometry on T47D cells and ELISA (binding affinity 'by both methods')
T1 construct: On the cell surface: 300-19 cells transfected with human FOLR1 (NCBI NP_057937), or endogenous on KB, T47D and OVCAR3 cells; also called huFOLR1; folate receptor alpha
Description: To assure that materials were continuously performing as expected, all antibodies were screened for binding by both ELISA and flow cytometry methods known in the art. Flow cytometry was performed using FOLR1 expressing human T47D cells cultured using in-vitro cell culture techniques known in the art. The antibodies were bound to these cells and detected indirectly using a goat anti-murine Alexa-fluor 488 detection antibody on a FACScalibur machine (FIGS. 6A-B).

[2] = biological target: human folate receptor 1 (FOLR1) on cells (human) (UniProt P15328); test: laser scanning cytometry on KB cells pre-treated with M9346A or vehicle, then stained with commercial FRA
FOLR3 = biological target: T2, FOLR3 (UniProt P41439 23-245, limits assumed); test: commercially available ELISA kit
T2 construct: also called folate receptor 3
Description: (§1) It is important that the assay detect only FOLR1, and not FOLR2 or especially FOLR3 (commonly found as a shed protein in human plasma), since Mov19 is specific for only FOLR1. To determine this, the top four clones were screened by commercially available ELISA kits (FIGS. 7A-B).

FOLR2 = biological target: T3, FOLR2 (UniProt P14207 17-230, limits assumed); test: commercially available ELISA kit
T3 construct: also called folate receptor 2
Description: as §1

T1 sequence (P15328 25-234 limits assumed): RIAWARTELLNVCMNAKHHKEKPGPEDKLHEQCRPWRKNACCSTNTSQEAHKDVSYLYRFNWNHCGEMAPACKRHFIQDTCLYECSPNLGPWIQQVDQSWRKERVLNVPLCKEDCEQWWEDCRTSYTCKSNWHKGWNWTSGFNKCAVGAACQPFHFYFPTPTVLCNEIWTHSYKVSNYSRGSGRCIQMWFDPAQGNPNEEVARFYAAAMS
T2 sequence (P41439 23-245 limits assumed): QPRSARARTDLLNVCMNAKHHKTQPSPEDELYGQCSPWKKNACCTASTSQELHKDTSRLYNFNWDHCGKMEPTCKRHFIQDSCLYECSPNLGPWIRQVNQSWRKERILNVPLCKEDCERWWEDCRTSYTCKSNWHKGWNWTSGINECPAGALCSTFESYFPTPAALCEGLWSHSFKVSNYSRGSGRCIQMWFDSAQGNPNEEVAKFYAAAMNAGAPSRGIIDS
T3 sequence (P14207 17-230 limits assumed): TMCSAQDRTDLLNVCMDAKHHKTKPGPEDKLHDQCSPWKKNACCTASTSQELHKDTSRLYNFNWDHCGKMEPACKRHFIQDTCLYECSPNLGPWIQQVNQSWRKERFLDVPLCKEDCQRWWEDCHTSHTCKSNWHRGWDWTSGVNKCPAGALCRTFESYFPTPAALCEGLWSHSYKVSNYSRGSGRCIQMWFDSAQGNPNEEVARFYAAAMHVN
human folate receptor 1 (FOLR1) on cells (human), sequence (P15328 25-234 limits assumed): as the sequence (P15328 25-234 limits assumed) above

B1: muFR1-13 (antibody, mouse IgG2b, kappa, V domains shown)
VH: QVQLKESGPDLVAPSQSLSITCTVSGFSLSRYSVHWIRQPPGKGLEWLGMIWSGGNTDYNSVFKSRLNITKDNSKSQVFLKMNSLQTDDTAIYYCATFDGKVSWFAYWGQGTLVTVSA
VL: SIVMTQTPKFLLVSTGDRFTITCKASQSVSNDVLWYQQKPGQSPKLLIYYAYNRYSGVPDRFTGSGYGTDFTFTITTVQSEDLAVYFCQQDHSSPFTFGSGTKLEIKR
notes: Murine monoclonal purified from hybridoma supernatant; Used biotinylated as the detection antibody in the ELISAs and unlabeled in the cytometry assays; also called muFR1-13b; Biotinylated FR1-13
Kd [1]: 1 to 3 nM

B2: muFR1-9 (antibody, mouse IgG1, kappa, V domains shown)
VH: QVQLVESGGGLVQPGGSRKLSCAASGFTFSSFGMHWVRQAPEKGLEWVAYISSGSSTFYYADTVKGRFTISRDNPKNTLFLQMTSLRSEDTAMYYCAKELTGTFAYWGQGTLVTVSA
VL: DIVLTQSPATLSVTPGDSVSLSCRASQSINNNLHWYQQKSHESPRLLIKYASQSISGIPSRFSGSGSGTDFTLSINSVETEDFGMYFCQQSNSWPQVTFGAGTKLELKR
notes: Murine monoclonal purified from hybridoma supernatant; Capture antibody of the shed antigen ELISA; also called murine FR1-9
Kd [1]: 2 to 4 nM

B3: huMov19 (M9346A) (antibody, V domains shown)
VH: QVQLVQSGAEVVKPGASVKISCKASGYTFTGYFMNWVKQSPGQSLEWIGRIHPYDGDTFYNQKFQGKATLTVDKSSNTAHMELLSLTSEDFAVYYCTRYDGSRAMDYWGQGTTVTVSS
VL: DIVLTQSPLSLAVSLGQPAIISCKASQSVSFAGTSLMHWYHQKPGQQPRLLIYRASNLEAGVPDRFSGSGSKTDFTLTISPVEAEDAATYYCQQSREYPYTFGGGTKLEIKR
notes: also called IMGN853 antibody; antibody component of IMGN853
drop in FRA signal [2]: 66% | binding result (FOLR3): no binding | binding result (FOLR2): no binding
